Measured values published in patent publication US20040267001A1, “Genes encoding baeyer-villiger monooxygenases” (priority 2001, published 2004).

Test: Conversion of cyclohexanone to caprolactone by E. coli clones expressing Rhodococcus erythropolis AN12 monooxygenases, GC-MS detection
Type: cell-based, Escherichia coli
Details: 500 mg/L cyclohexanone, 0.1 mM IPTG, overnight at 24° C., GC-MS of ethylacetate extract
Procedure: Following amplification, the gene fragments were cloned into pTrcHis-TOPO TA vectors with either an N-terminal tail or C-terminal tail, as provided by the vector sequence. These vectors were transformed into E. coli, with transformants grown in Luria-Bertani broth supplemented with ampicillin (100 ug/ml).
The chnB monooxygenase activity of each expressed enzyme from Example 9 was tested for activity according to its ability to convert cyclohexanone to caprolactone.
Clones containing the full length monooxygenase genes were transferred from LB agar plate to 5 mL of M63 minimal media (GIBCO) containing 10 mM glycerol, 50 ug/mL ampicillin, 0.1 mM IPTG, and 500 mg/L cyclohexanone. In addition to the clones containing full length monooxygenases, a plasmid without an insert and a “no cell” control were also assayed. The encoded monooxygenase sequences were expressed upon addition of IPTG to the culture media. The cultures were incubated overnight at room temperature (24° C.). Samples (1.25 mL) for analysis were taken immediately after inoculation and after overnight incubation; cells were removed by centrifugation (4° C., 13,000 rpm).
Caprolactone formed by the action of the cloned monooxygenase was extracted from the aqueous phase with ethylacetate (1.0 ml aqueous/0.5 mL ethylacetate). Caprolactone was detected by gas chromotagraphy mass spectrometry (GC-MS) analysis, using an Agilent 6890 Gas chromatograph system.
The analysis of the ethylacetate phase was performed by injecting 1 uL of the ethyl acetate phase into the GC. The inlet temperature was 115° C. and the column temperature profile was 50° C. for 4 min and ramped to 250° C. at 20° C./min, for a total run time of 14 min. The compounds were separated with an Hewlet Packard HP-5MS (5% phenyl Methyl Siloxane) column (30 m length, 250 um diameter, and 0.25 um film thickness). The mass spectrometer was run in Electron Ionization mode. The background mass spectra was subtracted from the spectra at the retention time of caprolactone (9.857 min). Presence of caprolactone was confirmed by comparison of the test reactions to an authentic standard obtained from Aldrich Chemical Company (St. Louis, Mo.).
Results of these assays are shown below in Table 7, in terms of the presence or absence of detectable caprolactone formation according to the activity of each expressed BV monooxygenase enzyme.

Molecule	Formation of Caprolactone (ability to convert cyclohexanone to caprolactone)
ORF 16: Rhodococcus erythropolis AN12 ORF 16 chnB monooxygenase, protein SEQ ID NO:38, expressed in E. coli (protein, Rhodococcus erythropolis AN12) VKLPEHVETLIVGAGFAGMGLAARMLRDNRTADVVLIERGADIGGTWRDNTYPGCACDVPTALYSYSFAPSADWSHTFARQPEIYDYLKKVAADTGIGDRVILNCELEAAVWDEDAALWRVRTSLGSLTVKALVAATGALSTPKIPDFPGLDQFSGTTFHSATWNHEHELRGERVAVIGTGASAVQFVPEIADPAAHVTVFQRTPAWVIPRMDRTLPAAQKAVYSRIPATQKVVRGAVYGFRELLGAAMSHATWVLPAFEAAARLHLRRQVKDPELRRKLTPDFTIGCKRMLLSNDWLRTLDRADVSLVDSGLVSVTEGGVVDGHGVEHKVDTIIFATGFTPTEPPVAHLITGKRGETLAAHWNGSPNAYKGTAVSGFPNLFLMYGPNTNLGHSSIVYMLESQAEYVNDALNTMKRERLDALDVNESVQVHYNKGIQHELQHTVWNKGGCSSWYIDPEGRNSVQWPTFTFKFRSLLEHFDRENYSARKIESVQA	Detected
ORF 19: Rhodococcus erythropolis AN12 ORF 19 chnB monooxygenase, protein SEQ ID NO:44, expressed in E. coli (protein, Rhodococcus erythropolis AN12) MTTQKALTTVDAIVIGAGFGGIYAVHKLANELGLTTVGFDKADGPGGTWYWNRYPGALSDTESHVYRFSFDRDLLQDGTWKHTYTTQPEILEYLEDVVSRFDLRRHFHFGTAVESAVYLEDEQLWEVTTDTGEIYRATYVVNAVGLLSAINRPDLPGLETFEGETIHTAAWPEGKDLTGRRVGVIGTGSTGQQVITALAPTVEHLTVFVRTPQYSVPVGKRAVTDEQIDAVKADYENIWTQVKRSSVAFGFEESTVPAMSVSAEERLRVYEEAWEQGGGFRFMFGTFGDIATDEEANETAASFIRSKITAMIEDPETARKLTPTGLFARRPLCDDGYFQVFNRPNVEAVAIKENPIREITAKGVVTEDGVLHKLDVLVLATGFDAVDGNYRRMTISGRGGLNINDHWDGQPTSYLGIATANFPNWFMVLGPNGPFTNLPPSIETQVEWISDTIGYVERTGVRAIEPTPEAESAWTATCTDIANMTVFTKVDSWIFGANVPGKKPSVLFYLGGLGNYRAVLADVTEGGYQGFALKTADTVDA	Detected
ORF 12: Rhodococcus erythropolis AN12 ORF 12 chnB monooxygenase, protein SEQ ID NO:30, expressed in E. coli (protein, Rhodococcus erythropolis AN12) VNNESDHFEVVIIGGGISGIGAAIHLQRLGIDNFALLEKADSLGGTWRANTYPGCACDVPSGLYSYSFAANPDWTRLFAEQPEIREYIENTAGTHGVDKHVRFGVEMLSARWDASQSLWKITTSSGELTARFVIAAAGPWNEPLTPAIPGLEAFEGEVFHSSQWNHDYDLTGKLVAVVGTGASAVQFVPRIVSQVSALHLYQRTAQWVLPKPDHYVPRIERSVMRFVPGAQKALRSIEYGIMEALGLGFRNPWILRIVQKLGSAQLRLQVRDPKLRKALTPDYTLGCKRLLMSNSYYPALGKPNVSVHANAVEQIRGNTVIGADGVEAEVDAIIFGTGFHILDMPIASKVFDGEGRSLDDHWQGSPQAYFGSAVSGFPNAFILLGPSLGTGHTSAFMILEAQLNYVAQAIGHARRHGWQTIDVREEVQAAFNSQVQEALGTTVYNAGGCESYFFDVNGRNSFNWPWSSGAMRRRLRDFDPYAYNHTSNPESDNTPPEPTPSEPTPSEPTPSEPTTSPEPEYTA	Detected
ORF 17: Rhodococcus erythropolis AN12 ORF 17 chnB monooxygenase, protein SEQ ID NO:40, expressed in E. coli (protein, Rhodococcus erythropolis AN12) MTQHVDVLIIGAGLSGIGAACHLIREQTGSTYAILERRENIGGTWDLFKYPGIRSDSDMLTFGFGFRPWIGTKVLADGASIRDYVEETAKEYGVTDHINFGRKVVAMDFDRTAAQWSVTVLVEATGETETWTANVLVGACGYYNYDKGYRPAFPGEDDFRGQIVHPQHWPEDLDYTGKKVVVIGSGATAITLIPSMAPTAGHVTMLQRSPTWIQALPSEDPVAKGLKLARVPDQIAYKIGRARNIALQRASFQLSRTNPKLAKKLFLAQIRLQLGKNVDLRHFTPSYNPWDQRLCVVPNGDLFKVLKSGKADIVTDRIATFTEKGIVTESGREIEADVIVTATGLNVQILGGATMSIDGEPVKLNETVAYKSVLYSDIPNFLMILGYTNASWTLKADLAASYLCRVLKIMRDRSYTTFEVHAEPEDFAEESLMGGALTSGYIQRGDGEMPRQGARGAWKVVNNYYRDRKLMHDAEIEDGVLQFSKVDIAVVPDSKVASA	Detected
ORF 9: Rhodococcus erythropolis AN12 ORF 9 chnB monooxygenase, protein SEQ ID NO:24, expressed in E. coli (protein, Rhodococcus erythropolis AN12) MVDIDPTSGPSAGDEETRTRRTRVVVIGAGFGGIGTAVRLKQSGIDDFVVLERAAEPGGTWQVNTYPGAQCDIPSILYSFSFAPNPNWTRLYPLQPEIYDYLRDCVHRFGLAGHFHCNQDVTEASWDEQAQIWRVHTAETVWEAQFLVAATGPFSAPATPDLPGLESFRGQMFHTADWNHDHDLRGERIAVVGTGASAVQIIPRLQPLADTLTVFQRTPTWILPHPDQPMTGWPSALFERVPLTQRLARKGLDLLQEALVPGFVYKPSLLKGLAALGRAHLRRQVRDPELRAKLLPHYAFGCKRPTFSNTYYPALASPNVEVVTDGIVEVQERGVLTADGAFREVDTIVMGTGFRMGDNPSFDTIRGQDGRSLAQTWNGSAEAFLGTTISGFPNFFMILGPNSVVYTSQVVTIEAQVEYIVSCILQMDERGIGSIDVRADVQREFVRATDRRLATSVWNAGGCSSYYLVDGGRNYTFYPGFNRSFRARTKRADLAHYAQVQPVSSAALTTARETVRSR	Detected
ORF 11: Rhodococcus erythropolis AN12 ORF 11 chnB monooxygenase, protein SEQ ID NO:28, expressed in E. coli (protein, Rhodococcus erythropolis AN12) MSPSPLPSVCIIGAGPTGITTAKRMKEFGIPFDCYEASDEVGGNWYYKNPNGMSACYQSLHIDTSKWRLAFEDFPVSADLPDFPHHSELFQYFKDYVEHFGLRESIIFNTSVVAAERDANGLWTVTRSDGEVRTYDVLMVCNGHHWDPNIPDYPGEFDGVLMHSHSYNDPFDPIDMRGKKVVVVGMGNSGLDIASELGQRYLADKLIVSARRGVWVLPKYLGGVPGDKLITPPWMPRGLRLFLSRRFLGKNLGTMEGYGLPKPDHRPFEAHPSASGEFLGRAGSGDITFKPAITKLDGKQVHFADGTAEDVDVVVCATGYNISFPFFDDPNLLPDKDNRFPLFKRMMKPGIDNLFFMGLAQPMPTLVNFAEQQSKLVAAYLTGKYQLPSANEMQEITKADEAYFLAPYYKSPRHTIQLEFDPYVRNMNKEIAKGTKRAAASGNKLPVAARAAAHELEKADRA	Detected
ORF 18: Rhodococcus erythropolis AN12 ORF 18 chnB monooxygenase, protein SEQ ID NO:42, expressed in E. coli (protein, Rhodococcus erythropolis AN12) MSSRVNDGHIAIIGTGFSGLCMAIELKKKGIDDFVLYERADDVGGTWRDNTYPGAACDVPSVLYSYSFAQNPNWTRIFPPWSELLDYLRSVAAQYDLLPHIRFGVEVSEMRFDEDRLRWNIQFASGESVTAAVVVNGSGGLSNPYIPQLPGLESFEGAAFHSAKWRHDLDMSGRRVAVIGSGASAIQFVPEIAPHTETLHVFQRSPNWVMPRGDAALSPATRERFSRRPYRQRWLRWRTYWAFEKLASAFLGNRKLVEQYRSQALANLQQQVPDSDLRQKVTPDYDPGCKRRLISDDWYPALQRENVHLNTSGVSEIRPHSIIDSEGAEHEVDTLIFATGFQATSFLAPMKVFGREGVELSDSWREGAATKLGLASAAFPNLWFLNGPNTGLGHNSIIFMIEAQARYIASAVQYMRRKSITALELDRTVQTGSYAATQERMRRTVWASGGCDSWYQSADGRIDTLWPASTIEYWLRTRLFRKSDFHALTTGKG	Detected
